Measurements reported in US11274129B2, “Methods for protein tyrosine phosphorylation profiling with variant SH2 domains” (priority 2016, dated 2022).

Test system: pTyr-including peptides from pervanadate-treated Jurkat cells
Assay: Enrichment of pTyr-including peptides from pervanadate-treated Jurkat cells by affinity reagents, 1D LC-MS/MS
Design: species or system human
Details: 3 mg Jurkat peptides
Procedure: Experiments were conducted to determine the relative efficacy of the variant Src SH2 domains and commonly used anti-pTyr antibodies as affinity reagents for pTyr-including peptides from biological samples. His6/GST-tagged TrM Src SH2 domain (SEQ ID NO: 11) and His6-tagged QuadM Src SH2 domain (SEQ ID NO: 13), as well as anti-pTyr antibodies, were prepared in functionally-equivalent molar amounts by using half the molar amount of the antibodies relative to the SH2 domain variants given that each antibody molecule has two binding sites for its antigen.
The first experiment tested the relative ability of the following affinity reagents to extract pTyr-including peptides from a peptide mixture prepared from Jurkat cells: a His6/GST-tagged TrM Src SH2 (SEQ ID NO: 11), a His6-tagged QuadM Src SH2 (SEQ ID NO: 13), the anti-pTyr antibody 4G10 (agarose conjugate, obtained from Millipore), and a mixture of commercially-available anti-pTyr antibodies. […] The two SH2 affinity reagents were also tested at a 30× amount; the antibodies were not tested at a 30× amount due to the prohibitive cost of doing so. The purified SH2 affinity reagents were prepared as described in Example 1. The antibody mixture contained 4G10 (as above), PY99 (obtained from Santa Cruz Biotechnology), and P-Tyr-100 (slurry of PTMScan® Phospho-Tyrosine Mouse mAb, obtained from Cell Signaling Technology). Since the concentration of P-Tyr-100 is unknown, the amount was used as recommended by the vendor (i.e., 4 μL for 1 mg peptide digest).
FIG. 2A presents a schematic of the experimental design. Each amount of His6-tagged SH2 domain variant or antibody was subjected to a binding experiment with 3 mg of a peptide mixture prepared from pervanadate-treated Jurkat cells.
Jurkat cells (obtained from ATCC) were cultured in a humidified atmosphere of 5% CO2 at 37° C. in Roswell Park Memorial Institute 1640 medium (RPMI-1640) supplemented with 10% bovine serum and 100 U/mL of streptomycin and penicillin.
The cells were again collected by centrifugation. The cell pellets were gently homogenized in an ice-cold lysis buffer containing 8 M urea, 50 mM tris(hydroxymethyl)aminomethane (Tris)-HCl (pH 7.4), 2% protease inhibitor cocktail (v/v, obtained from Sigma-Aldrich), 1% Triton X-100 (v/v), 1 mM NaF, and 1 mM Na3VO4, followed by sonication at 400 W for 120 s. After centrifugation at 25,000 g for 1 h, proteins were precipitated in ice-cold acetone/ethanol/acetic acid (50/50/0.1, V/V/V) solution. Subsequently, the proteins were diluted in reducing buffer containing 100 mM triethylammonium bicarbonate (TEAB) buffer (pH 8.2) and 8 M urea, and the final protein concentration was determined by Bradford assay. The protein suspension was reduced in 10 mM dithiothreitol (DTT) at 37° C. for 2 h, and it was then alkylated in 20 mM iodoacetamide (IAA) in darkness at room temperature for another 30 min. Trypsin digestion was performed at 37° C. overnight with an enzyme-to-protein ratio of 1/25 (w/w). The resulting peptide mixture was stored at −80° C. for further analysis.
Desalted Jurkat peptides (30 mg) were dissolved in ice-cold immunoaffinity purification (IAP) buffer and then split into 10 aliquots with 3 mg of Jurkat peptides each. Binding experiments were performed with the amounts of antibody (1×, 5×) or SH2 domain variant (1×, 5×, 30×) set out in Table 1 and FIG. 2A.
For antibody-based enrichment, 4G10 or the antibody mixture was incubated with the sample at 4° C. overnight while rotating. The beads were washed three times with ice-cold IAP buffer and twice with ice-cold water. To release the bound peptides, the beads were eluted twice with 200 μL 0.15% trifluoroacetic acid (TFA) for 15 min at room temperature.
For SH2-based enrichment, Ni-NTA beads containing the purified SH2 proteins were washed extensively in twenty column volumes of PBS buffer (pH 7.0) containing 20 mM imidazole. […] The washed beads were incubated with the peptide mixture at 4° C. overnight while rotating. […]

B1: Triple mutant: TrM human Src SH2 domain variant with Thr183Val, Cys188Ala and Lys206Leu; His6/GST-tagged form SEQ ID NO: 11 (protein)
chain: DSIQAEEWYFGKITRRESERLLLNAENPRGTFLVRESETVKGAYALSVSDFDNAKGLNVKHYLIRKLDSGGFYITSRTQFNSLQQLVAYYSKHADGLCHRLTTVCPTSK
modifications: SH2 protein domain; TrM human Src SH2 domain
Number of pTyr sites identified (0.375 nmol (1x) pTyr-binding sites): 578 | Number of pTyr sites identified (1.875 nmol (5x) pTyr-binding sites): 1060 | Number of pTyr sites identified (11.25 nmol (30x) pTyr-binding sites): 1165
